In the nanobody polyreactivity screen of Harvey et al. (2022):

Assay: yeast display, Sf9 membrane polyspecificity reagent, FACS + sequencing; frameworks hold sequencing errors
How it was run: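 A nanobody's polyreactivity label depends on the gate it was sorted from. Yeast display cells were stained with 10% biotinylated, detergent-solubilized Sf9 membrane reagent for 1 hour at 4 °C, enriched on streptavidin microbeads and sorted by FACS. The low and high (top ~1%) gates were set on anti-HA fluorescence for expression and streptavidin fluorescence for reagent binding.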

| Sequence | polyreactivity (PSR sort gate) |
| --- | --- |
| QVQLVESGGGLVHAGGSLRLSCAASGSIFGDYAMGWYRQAPGKERELVAAITRRGSTYYADSVKGRFTISRDNAKNTVYLQMNSLIPEDTAVFYCAKDVYPGRAGRPGIPYPYDYWGQGTQVTVSS | low polyreactivity |
| QVQLVESGGGLVHAGGSLRLSCAASGSIFGTNAMGWYRQAPGQERELVAAISYSGGSTYYADSVKGRFTISRDPAKNTVYLQMNSLKPDDTAVYYCAKVVRYWWERDYWGKGTQVTVSS | high polyreactivity |
| QVQLVESGGGLVHAGGSLRLSCAASGSIFGVNMGWYRQAPGKERELVASITSGGSTNYADSVKGRFTISRDNAKNTVYLQMNSLKPEDTAVYYCAARAERVREYNYWGQGTQVTVSS | low polyreactivity |
| QVQLVESGGGLVHAGGSLRLSCAASGSIFKYYAMGWYRQAPGKERELVAAISSGGSTNYADSVKGRFTISRDNAKNTVYLQMNSLKPEDTAVYYCAVDRYCWLDGYDYWGQGTQVTVSS | high polyreactivity |
| QVQLVESGGGLVHAGGSLRLSCAASGSIFTRNAMGWYRQAPGKERELVAAISRRGVSTYYADSVKGRFTISRDNAKNTVYLQMNSLKPEDTAVYYCNATIRYYRRGKLYDYWGQGTQVTVSS | high polyreactivity |
| QVQLVESGGGLVHAGGSLRLSCAASGSIFVPYALGWYRQAPGKDRELVAAMTSSGSSTYYADSVKGRFTISRDNAKNTVYLQMNSLKPDDTAGYYCAADYFDWEGNGYYYWGQGNQVTVSS | high polyreactivity |
| QVQLVESGGGLVHAGGSLRLSCAASGSIFYNYAKGWYRQAPGKERELVAAIDSGGSTYYADSVKGRFTISRDNAKNTVYLQMNSLKPEDSAVYSCAADTYWFVYYGYDYWGQGTQVTVSS | low polyreactivity |
| QVQLVESGGGLVHAGGSLRLSCAASGSTEYNAMGWYRQSPGTQRELVAVITDSDGSTYYADSVKGRYTISRDNAKHTVYLQMNSLKREDTAVYYCAADDYAYSYGYWLTYDYWGQGPQVTVSS | low polyreactivity |
| QVQLVESGGGLVHAGGSLRLSCAASGSTFDGYTMGWYRQAPGTERELVAAITDSGGSTYYADSVKGRFTISRDKAKNTVYLQMNSQKPEDTAVYYFAAAVPELYEVRYHDDYWGQGTQVTVSS | low polyreactivity |
| QVQLVESGGGLVHAGGSLRLSCAASGSTFFLYAMGWYRQAHGKERELVAAISSDGSTYYADSVKGRFTISRDNAKHTVYLQMNSLKPEDTAVYYCAAEYTPSYYEYYYWGQGTQVTVSS | low polyreactivity |
| QVQLVESGGGLVHAGGSLRLSCAASGSTFHYYAMGWYRQPPGKERELDAGITSGGGRTYADSVKGRFTISRDNAKITVYLQMNSLNPEDTAVYYCNARPSTGWTIYGVDYWGQGTQVTVSS | low polyreactivity |
| QVQLVESGGGLVHAGGSLRLSCAASGSTFKYYAMGWYRQAPGKERELVAAISSGNSTYYADSVKGRFTISRDNAKNTVYLQMNSLKPEDTAVYYCAAYWRRDPMDYWGQGTQVTVSS | high polyreactivity |
| QVQLVESGGGLVHAGGSLRLSCAASGSTFLSYAMGWYRQAPGKEREFVAAISWSDVNTYYADSVKGRFTISRDNAKNTVYLQMISLKPEDTAVYYCAAYYPSHDYSGFWSDTYEYWGQGTQVTVSS | low polyreactivity |
| QVQLVESGGGLVHAGGSLRLSCAASGSTFNTNTMGWYRQAPGKERELVAAITKSGGSTYYADSVKGRFTISRDNAKNTVYLQMNSLKPEDTAVYYCNAYPDDSYKYLYWSDGDYWGQGTQVTVSS | low polyreactivity |
| QVQLVESGGGLVHAGGSLRLSCAASGSTFSWYVMGWYRQAPGKERELVAAISYRGGRTYYADSVKGRFTISRDNAKNTVYLQMNSLKPEDTAVYYCAARGVVDAGRTNRPYDYWGQGTQVTVSS | low polyreactivity |
| QVQLVESGGGLVHAGGSLRLSCAASGSTFYSYAMGGYRQAPGKERELVAAISRSGGRTYYADSVKGRFTISRDIAKNTVYLQMKSLKPEDTAVYYCNAVNSVTTSTRTRAKYAAYDSWGQGTQVTVSS | high polyreactivity |
| QVQLVESGGGLVHAGGSLRLSCAASGSTYRANSMGWYRQAPGKERELVAAITRRGGSTYYADSVKGRFTISRDNAKNTVYLQMNSLKPEDTAVYYCAAASRYGEGDYWGQGTQVTVSS | high polyreactivity |
| QVQLVESGGGLVHAGGSLRLSCAASGTTLAIYAMGWYRQAPGKERELVASISRVGSTNYADSVKGRFTISRDNAKNTVYLQRNSLKPEDTAVYYCAARRSSYVILRAYYYWGQGTQVTVSS | high polyreactivity |
| QVQLVESGGGLVHAGGSLRLSCAAYGSTSLVNAMGWYRQAPGKERELVAAITRGGNTYYADSVKGRFTISRDNAKNTVYLQMNSLKPEDTAVYYCAAEDHTEQGQYDYWGQGTQVTVSS | low polyreactivity |
| QVQLVESGGGLVHAGGSLRLSCAPSGSTFDDYTMGWYRPAPGKERELVAAISSAGSTNYADSVKGRFTISRDNAKNTVYLQMNSLKPEDTAVYYCAAQVHPIRYDYWGQGTQVTVSS | low polyreactivity |
| QVQLVESGGGLVHAGGSLRLSFAASGRTFQVYAMGWSRQAPGKERELVAAITSLGGTYYADSVKGRFTISRYNAKNTVYLQMNSLKPEDTAVYYCAARARSTPRKYYYTRGYWGQGTQVTVSS | high polyreactivity |
| QVQLVESGGGLVHAGGSLRLSSAASGRIFWYYALGWYRQPPGKERELVASIRGSGGSTYADSVKGRFTVSRENAKNTVYLPMNSLKPEDTAVYYCAASGRQRGHPMYYWRQGTQVTVSS | high polyreactivity |

| Sequence | polyreactivity (PSR sort gate) |
| --- | --- |
| QVQLVESGGGLVHAGGSLRLSSAASGRTFKVYAMGWYRQAPGKERELVAAITGGGSTNYADSVKGRFTISRDNAKNTVYLQMYSLKPEDTAVYYCNARYYYRLVKWSRFSSYDYWGQGTQVTVSS | low polyreactivity |
| QVQLVESGGGLVHAGGSLRLSSAPSGSTFQAYAMGWYRAAPGKERELVAAINEGDSRTYYADSVKGRFTISRDNAKNTVYLPMNSQKPEDTAVYYCAIGNFRPYDYWGQGTQVTVSS | low polyreactivity |
| QVQLVESGGGLVHAGGSLRLTCAASGSTFGKYAMGWYRQAPGKERELVAAITWSGASTFYADSVKGRFTISRDNAKNTVYLQMNSMKPEDTAGYYCAARSFKSYYIFDYWGQGTQVTVSS | low polyreactivity |
| QVQLVESGGGLVHAGGSLSLSCAASGFILGVYAMGWYRQEPGKERELVAAITFTGASTYYADSVKGRFTLSRDNAKNTVYLQMNSLKPEDTAVNYCNKSSAYYRYEYWGQGTQVTVSS | low polyreactivity |
| QVQLVESGGGLVHAGGSLSLSCAASGRTFRQYAMGWYRQAHGKERELVAAISKGGGSTYYADSEKGRFTISRDNAKNTVYLQMNSLKPEVKAVYYCNAPGYVLKGYDYWGQGTQVTVSS | high polyreactivity |
| QVQLVESGGGLVKAGASLRLSCAASGRTFRHNARGWYRQAPGKERELVAAITIGTNTYYADSVKGRFTISRDNAKNTVYLQMNSLKPEDTEVYYCAAVKDRYAYVPPRFDYWGQGSQVTVSS | low polyreactivity |
| QVQLVESGGGLVKAGCSLRLSCAASGRTFGTYAMGWYRQAPGKERELVAAISSGGSTYADSVKGRFTISRDNAMNTVYLQMKSLKPEDTAVYYCTTRYPMGGTYTRYPLKGDYWGQGTQVTVSS | high polyreactivity |
| QVQLVESGGGLVKAGCSLRLTCAASARTFRWYAMGWYRQAPGKERELVATISWSSGRTRYADSVKGRFTISRDNANNTVYLQMNSLKPEETAVYYCNADQWDKSYDYWGQGSQVTVSS | high polyreactivity |
| QVQLVESGGGLVKAGGCLRISCAASGRIFGSYAMGWYREAPGIERELVASIRSGGRTKYADSVKGRFTISRDNAKKTVYLQMNSLKPEDTAVYYCDVPIQWDYGYWGQGTQVTVSS | low polyreactivity |
| QVQLVESGGGLVKAGGSIRISCAPSGRIFNQYGIGRNRQAPGKEMELVDAIRSGDSTNYADSVKGRFTISRDNAKNTFYLQMNRLKPEDTAVYFCARDRPGDYAGSDYWGQGTQVTVSS | low polyreactivity |
| QVQLVESGGGLVKAGGSLGLSCAASGSIFGVNAMGWYRQAPGKERELVAAISKRGGTTYYADSVKGRFTISRDNAKNTVYVQRHSLKPEDTAVYYCNAPYLWNYYGGRYDYWGQGTQVTVSS | high polyreactivity |
| QVQLVESGGGLVKAGGSLRISCAASGRIFGYNAMGWYRQAPGKERELVAVISTSGTITYYADSVKGRFTISRDNAKNTVYLQMNSLKPEDTAVYYCAARYYQRANGFGYWGQGTQVTVSS | low polyreactivity |
| QVQLVESGGGLVKAGGSLRLICDASGRTFYSYAMGWYRQAPGKERELVAAINTSGGRTHYADSVKGRFTISRDNAKYTVYLHMNSLKAEDTAVYYCAAERKNKYDYWGQGTQVTVSS | high polyreactivity |
| QVQLVESGGGLVKAGGSLRLRCAASGSIFRYYVMGWYRQAPGKERELVAAISGGSTYYADSVKGRFTISRDNAKNTVYLQLNSLKPEDTAVYYSAARGKRRSGGENYAYGYWGQGTQVTVSS | high polyreactivity |
| QVQLVESGGGLVKAGGSLRLSCAASGFNFGGNVMGWYRQAPGKERELVAAITYSGGSTYYADSVKGRFTISRDNAKNTVYLQMNSLKPEDTAVYYCAAVQRKYYIDPAYDYWGQGTQVTVSS | low polyreactivity |
| QVQLVESGGGLVKAGGSLRLSCAASGFTFGYYTMGWYRQAPGKERELVAAISSSGGSTHYADSVKGRFTISRDNAKNTVYLQMNSLKPEDTAVYYCAARYINRYPKAQPTDRSIYYWGQGTQVTVSS | high polyreactivity |
| QVQLVESGGGLVKAGGSLRLSCAASGLISAVYALGWYRQAPGKERELVAAITTSGGRTYYADSVKGRFTISRDNAKNTVYLQMNSLKPEDTAVYYCAAEHVRYLNPEFDYWGQGTQVTVSS | high polyreactivity |
| QVQLVESGGGLVKAGGSLRLSCAASGLTFYFYAMGWYRQAPGKERELVAGIRKRGGGTYYADSVKGRFTISRDNAKNTVYLQMNSLKPEDTAVYYCAKEPGWGRRSTTAYDYWGQGTQVTVSS | low polyreactivity |
| QVQLVESGGGLVKAGGSLRLSCAASGRIFGRYAMGWYRQAPGKEREFVAAISKRGGGTYYADSVKGRFTISRDNAKNTVYLQMNSLKPEDTAVYYCAVDNSPGFDDYDYWGQGTQVTVSS | high polyreactivity |
| QVQLVESGGGLVKAGGSLRLSCAASGRIFKYYAMGWYRQAPGKERELVAAISSVGSTNYADSVKGRFTISRDNAKNTVYLQMNSLKPEDTGVYYCAAPYQHYDVNYDSWGQGTQVTVSS | low polyreactivity |
| QVQLVESGGGLVKAGGSLRLSCAASGRIFTANAMGWYRQAPGKEREFVAAITTSDGTYYADSVKGRFTISRDNAKNTVYLQMNSLKPEDTAVYYGATDTATYPTAMDYWGQGTQVTVSS | low polyreactivity |
